In general, stoichiometry N refers to the number of molecules, sites or subunits per partner or assembly.

The values that follow come from article PMC3020921 (Molecular Biology of the Cell, 2011).

Data set [1] addresses Flag-tagged Nemo-like kinase (NLK), wild type. The data set is described as follows: SEC. (In gel filtration, larger molecules generally elute earlier.)
The data set “SEC” deals with the molecule itself. The data set is described as follows: SEC.

In turn, “Flag-tagged Nemo-like kinase (NLK), wild type (enzyme)” came in with a stoichiometry N in data set [1] of 2.

B1: endogenous NLK protein of PC12 cells (enzyme, rat (endogenous in PC12), UniProt D3ZSZ3 1-527, looked up)
chain: MSLCGTRANAKMMAAYNGGTSAAAAGHHHHHHHHLPHLPPPHLHHHHHPQHHLHPGSAAAVHPVQQHTSSAAAAAAAAAAAAAMLNPGQQQPYFPSPAPGQAPGPAAAAPAQVQAAAAATVKAHHHQHSHHPQQQLDIEPDRPIGYGAFGVVWSVTDPRDGKRVALKKMPNVFQNLVSCKRVFRELKMLCFFKHDNVLSALDILQPPHIDYFEEIYVVTELMQSDLHKIIVSPQPLSSDHVKVFLYQILRGLKYLHSAGILHRDIKPGNLLVNSNCVLKICDFGLARVEELDESRHMTQEVVTQYYRAPEILMGSRHYSNAIDIWSVGCIFAELLGRRILFQAQSPIQQLDLITDLLGTPSLEAMRTACEGAKAHILRGPHKQPSLPVLYTLSSQATHEAVHLLCRMLVFDPSKRISAKDALAHPYLDEGRLRYHTCMCKCCFSTSTGRVYTSDFEPVTNPKFDDTFEKNLSSVRQVKEIIHQFILEQQKGNRVPLCINPQSAAFKSFISSTVAQPSEMPPSPLVWE
B1: the “stoichiometry N” value in the data set “SEC” came out at 2.
